Source: patent US20240417479A1 (LASSEN THERAPEUTICS, published 2024)

Columns and labels:
[1] = molecular target: T1, human IL-18BP (interleukin-18 binding protein), mature human isoform A (human, UniProt O95998 31-194); test: cell-based or functional assay
T1 sequence: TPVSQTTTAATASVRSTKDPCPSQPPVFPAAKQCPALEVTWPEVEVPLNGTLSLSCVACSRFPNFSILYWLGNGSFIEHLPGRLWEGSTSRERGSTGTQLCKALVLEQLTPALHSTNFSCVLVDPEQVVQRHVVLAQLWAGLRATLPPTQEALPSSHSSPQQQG

[2] = molecular target: T1, human IL-18BP (interleukin-18 binding …); test: cell-based or functional assay; remark: listed apart in the source
[3] = molecular target: T2, cynomolgus monkey IL-18BP (cynomolgus monkey); test: cell-based or functional assay
T2 chain: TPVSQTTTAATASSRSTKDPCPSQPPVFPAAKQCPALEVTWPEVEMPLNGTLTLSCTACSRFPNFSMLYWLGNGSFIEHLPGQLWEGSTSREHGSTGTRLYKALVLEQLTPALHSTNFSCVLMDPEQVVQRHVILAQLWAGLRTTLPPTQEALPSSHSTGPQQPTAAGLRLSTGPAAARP

[4] = molecular target: T2, cynomolgus monkey IL-18BP; test: cell-based or functional assay
[5] = molecular target: T1, human IL-18BP (interleukin-18 binding …); test: BLI (Octet), mAb on AHC biosensor, IL-18BP in solution

Binder	EC50; CCL2 release (ELISA) from human PBMC with IL-12 + IL-18, PBMC assay 1 (endogenous IL-18BP) [1]	EC50; IFNγ secretion (ELISA) from purified human NK cells with precomplexed hIL-18:hIL-18BP plus IL-12 [2]	EC50; IFNγ release (ELISA) from cynomolgus monkey PBMC with IL-12 + IL-18, assay format 1 (endogenous IL-18BP) [3]	EC50; IFNγ release (ELISA) from cynomolgus monkey PBMC, assay format 2 (pre-complexed IL-18:IL-18BP, plus IL-12) [4]	Kd [5]
SA302a (antibody, human IgG1, V domains shown) VH: QVQLQESGPGLVKPSQTLSLTCTVSGYSITSDYNAHWIRQPPGKGLEWIGYIHYSGSTNYNPSLKSRVTISRDTSKNQFSLKLSSVTAADTAVYYCARNYGSIYVNYFDYWGQGTLVTVSS VL: EIVLTQSPATLSLSPGERATLSCSASSSVSYMYWYQQKPGQAPRPLIYRTSNLASGIPARFSGSGSGTDFTLTISSLEPEDFAVYYCQQYHSYPTFGGGTKVEIK	25000 pM	1300 pM	3400 pM	630 pM	
SA337a (antibody, human IgG1, V domains shown) VH: QVQLQESGPGLVKPSQTLSLTCTVSGYSITQDYNAHWIRQPPGKGLEWIGYIHYSGQTNYNPSLKSRVTISRDTSKNQFSLKLSSVTAADTAVYYCARNYGSIYVNYFDYWGQGTLVTVSS VL: EIVLTQSPATLSLSPGERATLSCSASSSVSYMYWYQQKPGQAPRPLIYRTSNLASGIPARFSGSGSGTDFTLTISSLEPEDFAVYYCQLYHSYPTFGGGTKVEIK	4700 pM	590 pM	580 pM	390 pM	
SA340a (antibody, human IgG1, V domains shown) VH: QVQLQESGPGLVKPSQTLSLTCTVSGYSITQDYNAHWIRQPPGKGLEWIGYIHYSGQTYYNPSLKSRVTISRDTSKNQFSLKLSSVTAADTAVYYCARNFGSIYVNYFDYWGQGTLVTVSS VL: EIVLTQSPATLSLSPGERATLSCSASSSVSYMYWYQQKPGQAPRPLIYRTSNLASGIPARFSGSGSGTDFTLTISSLEPEDFAVYYCQQYHSYPKFGGGTKVEIK		230 pM			
SA338a (antibody, human IgG1, V domains shown) VH: QVQLQESGPGLVKPSQTLSLTCTVSGYSITQDYNAHWIRQPPGKGLEWIGYIHYSGQTYYNPSLKSRVTISRDTSKNQFSLKLSSVTAADTAVYYCARNFGSIYVNYFDYWGQGTLVTVSS VL: EIVLTQSPATLSLSPGERATLSCSASSSVSYMYWYQQKPGQAPRPLIYRTSNLASGIPARFSGSGSGTDFTLTISSLEPEDFAVYYCQLYHSYPTFGGGTKVEIK	900 pM	430 pM	140 pM	410 pM	
SA339a (antibody, human IgG1, V domains shown, Humanized; human IgG1, kappa) VH: QVQLQESGPGLVKPSQTLSLTCTVSGYSITQDYNAHWIRQPPGKGLEWIGYIHYSGQTYYNPSLKSRVTISRDTSKNQFSLKLSSVTAADTAVYYCARNFGSIYVNYFDYWGQGTLVTVSS VL: EIVLTQSPATLSLSPGERATLSCSASSSVSYMYWYQQKPGQAPRPLIYRTSNLASGIPARFSGSGSGTDFTLTISSLEPEDFAVYYCQQYHSYVTFGGGTKVEIK					87 pM
